Measurements reported in the supplement of paper PMC12042874.
± gives the uncertainty stated by the source.

Assay: amyloid nucleation score (Sup35N fusion, yeast selection) (log enrichment); library NNK3; higher = more nucleation; inactive = no reads after selection
Outline: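 Output and input plasmid inserts were sequenced by Illumina after psi-negative yeast carrying Sup35N fused to peptides of 20 random codons had been induced 24 hours with 100 μM copper sulfate and grown 7 days at 30°C on medium lacking adenine and uracil. The nucleation score is the DiMSum log enrichment of output over input reads, centred on the mode score of non-aggregating sequences. Sequences with under 100 input reads were excluded.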

Substance	amyloid nucleation score
TCSLFFSYPYIGRQHGCGRY	0.444 ± 0.46
TCSVTEMVTL	inactive
TCSYKSC	inactive
TCWCGVRIFFGPQLASSVWL	inactive
TDFMSFINVERMCVILYPFA	1.36 ± 0.077
TDFTYSLTFVYKLGEKTVDI	inactive
TDGYFYDRSSVERSL	inactive
TDISLCNLGKHKVLRGL	inactive
TDVLELVSTHCRYGFSVPQP	inactive
TDWYVIF	inactive
TDYLFLSKWVTLCLSVWCNY	-0.084 ± 0.3
TEGKAVSEV	inactive
TEMMTFGFSGVMFVRVMFWL	inactive
TERESMCFLYWVSRRHYTGN	-0.541 ± 0.55
TERYATNSLCSGIKMALRQV	inactive
TEVFVHFTCEIGYIFLILFQ	inactive
TEYCIYFLEV	inactive
TEYFSRCRF	0.36 ± 0.49
TFFNFVDGTSVWRFAGRHIY	inactive
TFFTGKIRNKAVFEDSSYCK	inactive
TFKLD	inactive
TFLKGSLFCCYYTRDAVDYI	2.64 ± 0.054
TFMPIGLNL	inactive

Substance	amyloid nucleation score
TFRFLSRLSRTLWAFSKGLC	inactive
TFSDVGLFYLTQYDKVPFDL	inactive
TFSYGSFLRSYLLMC	inactive
TFVLRDTDVCKCSSYKRPNF	inactive
TGGRAPHRCVYSD	inactive
TGIYAF	inactive
TGRAFIIPVHAFRYDSVVGV	inactive
TGSVVYLKRDVPAIFKFLLV	inactive
TGWSWISLYWLCSNMVIVNR	inactive
THCFNYILYSCSRAQSSCKY	2.29 ± 0.059
THDSMHKCERMITPRGGCQQ	inactive
THDVFSSVMLGSFSLSSTTN	inactive
THISQNLQSVVHLYVLRKVV	inactive
THLCIEMLRM	-0.297 ± 0.88
THRFGMVR	inactive
THSGQEEWLVNKDAS	inactive
THTSAKDHRVDWLSQL	inactive
TICLSRVTYVSRQEWGSASV	-0.023 ± 1
TIEFWGRVAGFLLM	inactive
TIFGDCAEYSYVVLFINLFI	2.1 ± 0.098
TIIMR	inactive
TIMETALDLSMHPMNVH	inactive
TIPYFQYDVFHKEDNWTGML	inactive

Substance	amyloid nucleation score
TIVNGNVEFGMKLEWEHGCI	inactive
TKADEHYESIYTLCCHFVSP	inactive
TKCNDYFNVSRYSSLDS	inactive
TKDGHYA	inactive
TKDIMHTSSLVRWTHREAWC	inactive
TKFNG	0.709 ± 0.19
TKHETSLVCRLLTETRFKNI	inactive
TKNDRN	inactive
TKSRIWG	inactive
TLALSKSMMYQMVINPAIY	inactive
TLCLQKHPSFGDYIFG	inactive
TLCMVQRSRVVSLLSVGRIL	-0.223 ± 0.55
TLCQREPG	0.209 ± 0.71
TLDVR	inactive
TLFADNAVQIVLERSLRGCG	inactive
TLFQSFRELLRNGVFCLRTM	inactive
TLGDGRPLCLREEWEGPVTC	inactive
TLGMLHRNWYYLLF	inactive
TLIFRLYLRRNCNAVFCFVV	0.084 ± 0.56
TLLLIVDNGVNPSLKEMMLL	inactive
TLLLMSWHFGYMRAQF	3.14 ± 0.05
TLLTMTDFAIKFSHKQPGYV	inactive
TLMYFILYYIGLYPE	inactive

Substance	amyloid nucleation score
TLNIRCRRFVFVWDATNSV	2.88 ± 0.064
TLRNGQMTIGYCSKGISEVG	inactive
TLSCSDFTVLGTCDAVEGIN	inactive
TLSSKDVYMFLDS	inactive
TLTLAFARGDAYPSIARLV	inactive
TLVLVTRQLSFCRMDSRIEF	inactive
TLYFFKYFWMFVVMCKINKA	inactive
TMAYGAPLPHSTSYYITIMS	inactive
TMCKRLVVTYQLAYWRVSV	inactive
TMHGAQFCD	inactive
TMQEGRLSSWYSTVFFS	-0.073 ± 0.43
TMSGWFNGCVYGVSAIHSSD	inactive
TMVICLSLLRNMILHF	inactive
TNDAGHVWYSLCLRIFNTNV	inactive
TNDLYEFVPRAVILTSICLL	inactive
TNGKPFYFPLAVMMSG	inactive
TNRVIVSMRLYVMDLYYCRT	inactive
TNYWNHVVYVTGNVCDP	inactive
TPKWILMERNTSRGWATSA	inactive
TPLADN	-0.224 ± 0.73
TPRFMVGAVATEGAHIFLRV	inactive
TPVMRSVNMMVLKTI	inactive
TPWSYASLVLSVQCFGRLIM	inactive

Substance	amyloid nucleation score
TQFIELS	0.199 ± 0.32
TQRICRWLMVVWCDGRETHE	0.403 ± 0.35
TRFTACGYRKSCYWWIVF	inactive
TRHIGVGRY	inactive
TRHLMLVLSWFLHRKNISRG	inactive
TRIGSTEKTEQSVWD	-0.198 ± 0.75
TRILGYIFGAVSIVWLGVER	inactive
TRLKFTLDWELM	1.06 ± 0.098
TRLLWSAEFGEGNDMTSLKF	0.073 ± 0.87
TRMWYGLLAENGCAYLGCNW	inactive
TRRPAQFVGPI	0.645 ± 0.16
TRSIVY	inactive
TRVHWHR	1.63 ± 0.1
TSAMSYFGDIYWCRKFRRVG	inactive
TSCQLWETIIKMLDHARTGA	inactive
TSDIFTSRYILAIDPRMNWV	inactive
TSINFSMAIDLRSHQLERTV	0.479 ± 0.31
TSLLILRCSGE	inactive
TSLVFLLGLSMFM	inactive
TSNIHY	inactive
TSNTGVSVSRFTFSVDRSVG	inactive
TSTELFRSGSVLRKPRMSSA	-0.255 ± 1.1
TSTSIVSYGTWFSGFVLNVS	2.29 ± 0.076

Substance	amyloid nucleation score
TSYNCCVVHSVRTAIFARG	inactive
TSYVEVGFLVSKYQTWWAVN	inactive
TTCCRFYREIKFFRIS	inactive
TTGPYLSATEHTVGHLR	inactive
TTILLTFDTGTIS	inactive
TTLGHTPPVCFSDPWAQARA	inactive
TTLVGHASPVKAMTGTFTWH	inactive
TTMVIRNAMCNILNVVRKRR	0.203 ± 0.33
TTSRNRIGRGLCGLAS	-0.115 ± 0.48
TTVMLTKLYMFEGPNRFTAL	0.961 ± 0.084
TVARMRFSTMTRDAQCVGRL	0.107 ± 0.9
TVCVWSVKVMP	-0.492 ± 0.66
TVHKVSGKDQGWMYGHMLFC	inactive
TVLFEIYMNEVMNGFLICST	inactive
TVLLYLNDMVNNNFGFEGSF	0.647 ± 0.34
TVLVGDMVVR	inactive
TVLYWRLRQMMRFRLFSSNW	inactive
TVMDVLCECYMIVFRG	0.875 ± 0.13
TVMLWAWEGRWYVRFVSPDR	inactive
TVMPIYQCSIGVKFSCDSAK	1.53 ± 0.072
TVNPMIVDPCNW	inactive
TVPIMNVPD	-0.428 ± 0.8
TVSTE	inactive

Substance	amyloid nucleation score
TVSTNDFSL	-0.61 ± 0.9
TVTGFTCNGCFHAVNSVVLT	0.002 ± 0.8
TVTHLFGHRVGMSLVFNSTY	inactive
TVTVQYTG	inactive
TVTWFDINCMVGFLY	0.431 ± 0.68
TVVDLLVRYSAIGSCVFSVT	inactive
TVYIAYTCVAVRSHSEHLFD	inactive
TVYSTVSRDMNDKHFAGSTG	inactive
TVYYTLFATIWMLGVFFLNN	inactive
TWIMALLMILFNKVFVSSTR	inactive
TWRYWFKLESYNVYWRLLPA	-0.582 ± 1
TYEEGRRQCSRAPMDSYVQS	inactive
TYEST	inactive
TYFRHYRKRSRSTSDLYLRL	inactive
TYGNENSSLILSCTCYIMLS	2.41 ± 0.082
TYNRHSFLA	inactive
TYRCYELVGDTVC	inactive
TYRRFMDNNGVIILILPNER	1.74 ± 0.072
TYTSESWVHLVKYGSLNELE	inactive
TYYTSRYL	inactive
VACITLCNIVQSIQMSIIMK	1.45 ± 0.061
VAGLSRHIRIFHYYHSRARF	inactive
VALLDSHGKWFMLGQFLNLK	inactive
